Test results published in patent publication US20250206821A1 (Hoffmann-La Roche, published 2025).

T1: VEGF (UniProt P15692-9 27-147)
T1 construct: also called VEGF121
T1 sequence (looked up): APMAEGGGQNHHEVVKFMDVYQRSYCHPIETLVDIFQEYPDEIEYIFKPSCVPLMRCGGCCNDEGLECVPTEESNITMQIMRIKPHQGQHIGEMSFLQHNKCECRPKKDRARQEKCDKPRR

B1: anti-bio/anti-fluos bsAb (bio 2/3-IgG with E357K MHCFcRP x fluos 2/3-IgG with K370E MHCFcRP) (bispecific antibody)
heavy 1: not shown
light 1: DIQMTQSPSSLSASVGDRVTITCRASGNIHNYLSWYQQKPGKVPKLLIYSAKTLADGVPSRFSGSGSGTDFTLTISSLQPEDVATYYCQHFWSSIYTFGQGTKLEIKRTVAAPSVFIFPPSDEQLKSGTASVVCLLNNFYPREAKVQWKVDNALQSGNSQESVTEQDSKDSTYSLSSTLTLSKADYEKHKVYACEVTHQGLSSPVTKSFNRGEC
heavy 2: not shown
light 2: DIVMTQTPLSLSVTPGQPASISCKSSQSLVHSNGNTYLRWYLQKPGQSPKVLIYKVSNRVSGVPDRFSGSGSGTDFTLKISRVEAEDVGVYYCSQSTHVPWTFGQGTKLEIKRTVAAPSVFIFPPSDEQLKSGTASVVCLLNNFYPREAKVQWKVDNALQSGNSQESVTEQDSKDSTYSLSSTLTLSKADYEKHKVYACEVTHQGLSSPVTKSFNRGEC
notes: Product of the 2/3-IgG exchange reaction, assayed as reaction mix; also called bio fluos
B2: anti-bio/anti-dig bsAb (bio 2/3-IgG with E357K MHCFcRP x dig 2/3-IgG with K370E MHCFcRP) (bispecific antibody)
heavy 1: not shown
light 1: B1 light 1
heavy 2: QVQLVESGGGLVKPGGSLRLSCAASGFTFSDYAMSWIRQAPGKGLEWVSSINIGATYIYYADSVKGRFTISRDNAKNSLYLQMNSLRAEDTAVYYCARPGSPYEYDKAYYSMAYWGQGTTVTVSSASTKGPSVFPLAPSSKSTSGGTAALGCLVKDYFPEPVTVSWNSGALTSGVHTFPAVLQSSGLYSLSSVVTVPSSSLGTQTYICNVNHKPSNTKVDKKVEPKSC
light 2: not shown
notes: Product of the 2/3-IgG exchange reaction, assayed as reaction mix; also called bio dig; not shown: residue limits no
B3: anti-PDGF/anti-bio bsAb (PDGF 2/3-IgG with E357K MHCFcRP x bio 2/3-IgG with K370E MHCFcRP) (bispecific antibody)
heavy 1: EVQLVESGGGLVQPGGSLRLSCAASGFTFSSYWMSWVRQAPEKGLEWVSTISDGGGLTYYADSVKGRFTISRDNAKNSLYLQMNSLRAEDTAVYYCAESGGYTDWLFGYWGQGTLVTVSSASTKGPSVFPLAPSSKSTSGGTAALGCLVKDYFPEPVTVSWNSGALTSGVHTFPAVLQSSGLYSLSSVVTVPSSSLGTQTYICNVNHKPSNTKVDKKVEPKSC
light 1: not shown
heavy 2: not shown
light 2: B1 light 1
notes: Product of the 2/3-IgG exchange reaction, assayed as reaction mix; also called PDGF bio; not shown: residue limits no
B4: anti-bio/anti-PDGF bsAb (bio 2/3-IgG with E357K MHCFcRP x PDGF 2/3-IgG with K370E MHCFcRP) (bispecific antibody)
heavy 1: not shown
light 1: B1 light 1
heavy 2: B3 heavy 1
light 2: not shown
notes: Product of the 2/3-IgG exchange reaction, assayed as reaction mix; also called bio PDGF; not shown: residue limits no
B5: anti-dig/anti-bio bsAb (dig 2/3-IgG with E357K MHCFcRP x bio 2/3-IgG with K370E MHCFcRP) (bispecific antibody)
heavy 1: B2 heavy 2
light 1: not shown
heavy 2: not shown
light 2: B1 light 1
notes: Product of the 2/3-IgG exchange reaction, assayed as reaction mix; also called dig bio; not shown: residue limits no
B6: anti-fluos/anti-bio bsAb (fluos 2/3-IgG with E357K MHCFcRP x bio 2/3-IgG with K370E MHCFcRP) (bispecific antibody)
heavy 1: not shown
light 1: B1 light 2
heavy 2: not shown
light 2: B1 light 1
notes: Product of the 2/3-IgG exchange reaction, assayed as reaction mix; also called fluos bio
B7: anti-dig/anti-fluos bsAb (dig 2/3-IgG with E357K MHCFcRP x fluos 2/3-IgG with K370E MHCFcRP) (bispecific antibody)
heavy 1: B2 heavy 2
light 1: not shown
heavy 2: not shown
light 2: B1 light 2
notes: Product of the 2/3-IgG exchange reaction, assayed as reaction mix; also called dig fluos; not shown: residue limits no
B8: anti-fluos/anti-dig bsAb (fluos 2/3-IgG with E357K MHCFcRP x dig 2/3-IgG with K370E MHCFcRP) (bispecific antibody)
heavy 1: not shown
light 1: B1 light 2
heavy 2: B2 heavy 2
light 2: not shown
notes: Product of the 2/3-IgG exchange reaction, assayed as reaction mix; also called fluos dig; not shown: residue limits no

These binders were tested against T1, VEGF (assay: bridging ELISA on exchange reaction mix; VEGF capture, biocytinamid-Cy5 detection; input 1.3 µM; highest value of the assay = 100%).

| Binder | relative signal intensity [%] |
| --- | --- |
| B1 | 9 |
| B2 | 9.3 |
| B3 | 10.5 |
| B4 | 10.1 |
| B5 | 9 |
| B6 | 10.2 |

What follows are binders tested against T1, VEGF (assay: bridging ELISA, VEGF capture, biocytinamid-Cy5 or digoxygenin-Cy5 detection; background signal).

| Binder | binding result |
| --- | --- |
| B2 | no binding (tested: input molecule concentration 1.3 µM) |
| B5 | no binding (tested: input molecule concentration 1.3 µM) |

The binders below were run against T1, VEGF (assay: bridging ELISA, VEGF capture, biocytinamid-Cy5 detection; background signal).

| Binder | binding result |
| --- | --- |
| B1 | no binding (tested: input molecule concentration 1.3 µM) |
| B3 | no binding (tested: input molecule concentration 1.3 µM) |
| B4 | no binding (tested: input molecule concentration 1.3 µM) |
| B6 | no binding (tested: input molecule concentration 1.3 µM) |

What follows are binders tested against T1, VEGF (assay: bridging ELISA on exchange reaction mix; VEGF capture, digoxygenin-Cy5 detection; input 1.3 µM; highest value of the assay = 100%).

| Binder | relative signal intensity [%] |
| --- | --- |
| B7 | 6.7 |
| B2 | 6.2 |
| B5 | 6.2 |
| B8 | 6.3 |

The binders below were run against T1, VEGF (assay: bridging ELISA, VEGF capture, digoxygenin-Cy5 detection; background signal).

| Binder | binding result |
| --- | --- |
| B7 | no binding (tested: input molecule concentration 1.3 µM) |
| B8 | no binding (tested: input molecule concentration 1.3 µM) |
